Experimental findings from US12723100 are described below.

The target of experiment [1] is full-length human Nectin-4 on cells (human) (UniProt Q96NY8). Briefly: cell-based or functional assay.
Experiment [2] has the same target. Briefly: flow cytometry, SKBR3 cells (endogenous Nectin-4). For orientation: Flow cytometry measures light scatter and fluorescence of single cells or particles in a stream.
The target of experiment [3] is human recombinant Nectin-4 protein (extracellular domain) (human) (UniProt Q96NY8). Briefly: ELISA, recombinant human Nectin-4 coated on plate.
Experiment [4] concerns the target full-length human Nectin-4 on cells (human) (UniProt Q96NY8). Briefly: flow cytometry competition on CHO-Nectin-4 cells; competitor biotinylated human Nectin-1-His.
Experiment [5] has the same target. Briefly: flow cytometry, CHO-Nectin-4 cells.

B1: Positive Control 1 (PC1), in-house Nectin-4-specific antibody based on Enfortumab (AGS-22 M6) (antibody, INN chains, looked up, V domains shown)
VH: EVQLVESGGGLVQPGGSLRLSCAASGFTFSSYNMNWVRQAPGKGLEWVSYISSSSSTIYYADSVKGRFTISRDNAKNSLSLQMNSLRDEDTAVYYCARAYYYGMDVWGQGTTVTVSS
VL: DIQMTQSPSSVSASVGDRVTITCRASQGISGWLAWYQQKPGKAPKFLIYAASTLQSGVPSRFSGSGSGTDFTLTISSLQPEDFATYYCQQANSFPPTFGGGTKVEIKR
As a reminder, the EC50 is the midpoint of the concentration-response curve. The molecule B1 showed an Endocytosis EC50 (cell killing with MMAF-conjugated Fab anti-hFc), Nectin-4-CHO cells in experiment [1] of 0.33 nM. In experiment [1], this molecule showed an Endocytosis EC50 (cell killing with MMAF-conjugated Fab anti-hFc), SKBR3 cells of 0.39 nM. The EC50 amounted to 0.07 nM in experiment [2], 0.34 nM in experiment [3], 0.16 nM in experiment [4] and 0.04 nM in experiment [5].
